The data set can be described thus: label from the status in PepcDB records.

Take “MPAERDSSAAWAVCVYCASGPQHPELLGVAAELGEAIAERGWTLVWGGGRVSAMGAVASAARARGGRTVGVIPTVLMRREIADADADELIVSDTLHERKQIMEDRADAFIALPGGIGTLDEVLDAWTTGFLGLHAKPIVLLDPIGHYEGLWLWLSGLLDSGYITQAAMDRVVLVDKVGAALEACAPG”: the protein production result is “failed”.
As for “MPAHSLSLYQYYRPPLDWQAQLAFYRLRAVAGMEWFSNTDNDCLEKIAQDKQALEYGRTLQIDDIRAVVHIIHEAHLHRFKLTLTFTPDSPIAGLQKLITQVRRILDLDADMQQIEHNLQRLTDLKLIPKSGLRIPGAGSLEHHHHHH”, the entry is “failed”; as for “MPASPEESAMTPWTPIARLEEIPRQGARVVATPEGAIAVFRTLDDRVFALLDRCPHKGGPLSQGIVHGARVACPLHNWVIELDSGQAVAPDEGCVRRFETRLEDGMVAIALPDSLVGTLEHHHHHH”, “not failed”; as for “MPCTAKVLELRPSVDALLRQHVRTLQGTGRGQCSKSFVPAIRQELVMIALFQGLGLLLQDNALHRLPFDEQVAHWRDKTDAQLDEELSLLKVAKKQWVIASIIGWQAISLILLGVITHQLWQNDYHLTFSRVVIIFTSWASILFVMWYIADLFDHSAGFERWLRAFNSRARVTPDADSVECVADALDMTRRYPEVLRYKQEVTSKRELRHEDIVNMREMGRLRRYTELLRDLDRFDGAPRLVANA”, “failed”.
As for “MPDGDFITLDRVEKVFDVRRKTGFLRSERRRVRAVDSLSFTVARGEMVGYIGPNGAGKSTTIKMLTGILTPSGGRLRVAGIDPSRERTRLAARIGVVFGQRTTLWWDLPLIDSYRLMHRMYRIPDGRYRENLDRCVELLELGDLLDVPVRQLSLGQRMRGDIAAALLHDPEVLYLDEPTIGLDVISKARVREFLRELNAERGTTVLLTTHDLQDIEQLCGRVMVIDHGRLMYDGPLAGLHEVGDSERTLVVDLARELPPIEAAPARVVKVEGPRQWLAFPASESAAPLVARIAAAYPLVDLSVREPDIEAVIAKMLQSMGDTPQPPPEQAEHVVSLEHHHHHH”, the entry is “not failed”.
With “MPDKFKRVHVIVMDSVGIGEAPDAAKFGDFDVDTFGHIAKHVGGLKMPEMGKLGLSNIREIEGIEKAEKPLAYYTKMQEASNGKDTMTGHWEIMG” the entry was “failed”; with “MPDNFLIVPSADVQGGRLTTLSNAISTTDLNLTVTGLSNDTELVVYQLSTGVIGTPQAAAQPRETHVFALMGQSNMIGRAAFDGGAKWPDGTLQIGRGGDEDGAIIPARNPADGPATSRPLAHTGARLGNMGLDIQFAIDYLSDKPDVTLLFIPCAQGATGFSNGAWNPGDWLYNRETARINAAMNANPEFLFQGFLWHQGETDTGIPGTYGGLLDNLIAGLRRDVTAATPTTPFILGGLAAGNAGRDAITGIIAATPGRVPYTAFAPTADLSLTDANHFDAASFRTLGARYAAALASAAANQPGAPGIPTGLSAVAGDTEVTLSWSAPANTGGTALSDYIIERDSGSGFAALADGTGTTTGYTDSGLSNGTTYAYRVRAVNGTGTGAATPPQSATPAAPATGPVAEAGAQAHWLFGADNPTYADLVSGRIATGPAHALEAAYMTSPAGIRQGRDTGIAEADAQTMCFVFQLAGSANSMIGGTLTTSGSNGVSPYTSATTGIYANMRGGWGNPAISSASPYRTQFVFAAVSKNVATGNYVLFAGNGAGHDVLTGTSAQTTSPRTIGIGNLHFDRANFSGQISIAEAILFDSAKTEIELTEIYDRSRTRLAARGLTVV”, “failed”.
For “MPDPIFSVSDARRSGTRLIGFGIGAIVVILATAATFLLLTLPDANAFNARVERVFIENDLTTQAEIRLLEILAQSGTAFADTLSSYRMVIFVLLVFASAMMIAALAFLVMLVLLNRRMAQIERTGIQVTSLLISREENTVYLNNMEFQLTPAAIETLAVLAEARMDDDVLSGAQIEAVISGRDASDCEEAAGATRIKRLRDTLGNQMISALLVKNIAKRGYMLAIEKSVIQMV”, the protein production result was “failed”.
With “MPDPKPEVLDFLLSRRSRPAKTLALPVPDRAALAPILTGALRTPDHGKLEPWRLIVLEAGAMPRLAALADARAEALALDPDKSAKGRAQFAQSHLAVVVVARPEPSDKVPEIEQILSAGAVCLSLLNAAQAAGWGANWLTGWPAYDRGFLREGLGLAETEFVAGIVHIGSETVAPPERPRPDVASLTTWVSE” the entry was “failed”.
With “MPDTKIVDANNKFGFKLFSEIAKQDGNAKNISVSPTSVAIALAMTYNGASGSTQKAMAKTLELQGISLPELNSGYASLNKLLQNPGENVQLTIANSLWVNQDVSLRPDFVQTTRDFYQAKVTNLDFQNVTAVNTINSWVQENTKGKIDKIVDNIEPNQALFLINAIYFNGKWSNAFDKSQTTPQTFYTASGQQKQHPMMSQTGEYRYYETPQFQSVSLPYGQDGKVSLYIFLPTKNSNLKAFSQNLNAENWEKWMPQFRNREGSIRLPRFQTDYDITLNDALKSLGMAEAFSNKANFSGIGDNLTISQVRHKTVIEVNEEGTEASAATSVGMVATSLREPQQPFKMIVDRPFFYAIRDNQSKNILFMGAVVEPN” the entry was “failed”.
With “MPDVDKIIQFKREILDNLSNERLSKESFGLSMDVKLPEPGESIVPWIGEDLALDETDDELDLNFMLDALENEDKLSYSDIFNDNLPLSGSNLRVDVDSELSTLNNDFDVSSSDSFENNIDKVLDDNSIDLEIASKLDFDNLINSPELSSEELINNQGNNNFFEANNDSSVLGDSNFLQSNEFNIDDAVNGKNQTDEQSEMFVGDSLNLSADEDDFENVIDDFKFLEYDQNANFKRFEFKVNYPLFLKHLNSYPRNLRIAIAEALTKENVSRFKLEALIDLVEKNKKRLKFIAKFVGDIVGRSIKLPVIYFKAEEFSKLQQKLSYRVSRALLPLIKIASFFVVLVLVSLYLIVDVIFFYVASESKYKEGIESIYANKRDLAKSIFRDAYYIRPDDKWFINYAKAFEDVRDFDSAEEKYEELFTIEPFSKNSTNRRRKKFNKEGYISYASMKIGLGEHSEANSILDEVISYDLYDYDALVLKGDNYFKWAKTNSNYYKDSINSYTVVLSKYGQKKEILFKLFNAYIEANLDTESDNVNNFIKSNEILDIDEVVYTKYAKKLVDKYISFVTYNQRANNLAINLNYLNGQTNLLNKEFSDFKRNDGRTIFKLDNNVNMNSEIEYILRKILNKNPNYDKALFESGRYSYYIGDFKKAEVYLLKALNSFRHKNSIEDAGDKILAYKILADIYEKTRDSLRASNIIGLALSDYSFYKKHNLIKGSKEISSIYEKQGDILRSLNDFKSAISSYKLAINEGVDYPDVYYKVGLLSYRENNYDDALKYLFKVESMAGFSSSNEVLNTIALTLYKIGDFLASRSYYLRVMQNLELEKANVLNFNPKENDYHKTLLLKEIETYNNLGVVEVMASFSSIRDTKLFNSGVSNLSESAKIFDILNRDEDMVKSVKKDLASLNLRNIFKNSFSKSNVLFYENLSEKL” the entry was “failed”; with “MPEASSPASEKSLSRLLLELLWQLAALLIPIFFVTLLPPPAALGVLLGCAAAMTLAARLGWPKTARGLARLMISAAFGLGFSLGRALPAYWDIAAAFTSIFAGLAAVSHLERRLGLVQPSPTPISAWGGNEPQQTPEGQPIRVFNHGEIAMGGPTYCDYLFPDGVLLQGLGSSARFSSDGRYFAAPLPSRQHWGLAILDREQRRLYRCNREHFWELDAFSADTLSGRHSPLVDNGQHQASLNSLLQEAECVELVAVADLWLEPGQWLEALARQDFEESAPHGSHRLHASLALPASLRALEQPLEPLRTPPYRISIDGQPSGLLLRADAPRIWRDDGRALACIAHEQAQPEAACCWLWQADKGWRALPAPWVASHAEPSFYPGPLLSLDRHWLGYSAYLDLAEADHGRYGYRLHSTHSDSETGVGHDRQGCLQVAPLPLTRTQLLQPLDGSGARGESRIQSQPLLGEQRALFSWLTDNPRGLGAYRCQIGTWQLPGCWLLDHRVSDCQRYLALLPWSETLELAPQVVVADLQQQRLIYSPALLAARLLDFRQGRLSLAVLVGRLDPDHASSPLQRFNRPAPAPEHAAAFCTEGPASQPCYERQDWLVIDDQLQPVAPWRLVDRPQAAVAEGDFIQPAPDGRDAAWLFGSETEYADSWLRETSPRLGGHLLTASGCAVGDLAPSLIWSTDARYLALTRLRLGAGDPQQGYRAWQLLLLDVQERSLRIAPDWLRHRPLFQHFDARGLALQLFERDWQAADDPDPGRSLEWALEDLLRLPAEPLREHQGLWLSAADWPQARAWQALRRPAHPAFRAGA”, “failed”; with “MPEEVSNEIEAPSLHTPEEVLLHYWGYPSFRPVQLPIIESVLAGKDTLGLLPTGGGKSITFQVPGLLLPGLTLVVTPLIALMRDQIMGLRQKGIKATAVHAGMTREQIITTLDNCIYGRYKFLYVSPERLGSELFLSRLHALRVSLLVVDECHCISQWGYDFRPAYLSIADIREALPDVPVLALTATATRPVIDDIQRILRFPEPNVLRKSFFRPNLSYSIRRTADKETMLLHILSRVDGSAVVYCRNRDKARDLARFLGENGFSADFYHAGLNHVTREIRQKSWMEGETRIIVCTNAFGMGIDKPDVRLVLHMEMPSSPEEYFQEAGRAGRDGERAYAVLLAGEDDIFNLKRRVSNEFPPREYIATVYNRICNYLQIGEGEGFERSFDFDIDAFCRNFRMFPTQVLAAIRILDVAGIWEYREEKTRSRLTIQVQRDELYRMRSEQASDSVLTALMRTYDGLFADYVSIVESELAEKTGLSVDQVYQQLLLLNKAGIVNYIPQKNLPRIYFLTRREDAELLQIPRAAYEDRRDRLKARIDQSLRYIEEENTCRSRMLLAYFGEEQSHNCKLCDVCLRRKDGELHHHEVDDLLHFLEQRLTEETPYVLIADICRELHHHPDVVLKAIRFVMKESWQYSTDGDTVFLTHKLPGGLNL”, “failed”.
Take “MPEGHRATAIYFRHLLLIRVEIENIVNTLAICRHTFYISSLSLPCNLNKLIIMENLQSNLFYSLAGVAAVASLASCTNKQKTTEQKPLNIVYIMTDDHTAQMMSCYDTRYMETPNLDRIAADGVRFTQSFVANSLSGPSRACMITGKHSCANKFYDNTTCVFDSSQQTFPKLLQKVGYQTALVGKWHLESLPSGFNYWQIVPGQGDYYNPAFITQDNDTIQKHGYITNLITDDAIDWMENKRDPEKPFCLLIHHKAIHRNWMADTCNLALYEDKTFPLPDNFFDDYEGRPAAAAQEMSIVKDMDMIYDLKMLRPNEKSRLRSLYERFLGRMDEGQRAAWDKFYAPIIDDFYKQNLTGKELANWKFQRYMRDYMKTVKSLDDNVGRVLDYLKEKGLLDNTLVVYTSDQGFYMGEHGWFDKRFMYEESMRTPLIMRLPKGFDRRGDITEMVQNIDYAPTFLELAGAEIPADIHGVSLLPLLKGEHPKDWRKSLYYHFYEYPAEHMVKRHYGVRTERYKLIHFYNDINWWELYDMQADPSEMHNLYGEAEYEPVVKELKDELLKLQEQYNDPVRFSPERDKE”: the protein production result is “failed”.
As for “MPEGLATAQAKYNGAAGRAFVEGLPALAAGFLERWELRLDGPSMHGWAALVLPVVRRDGTGAVLKLQILDAETEGEPLALRVWDGDGAVRLLDHDPATGTMLLERLDAGRMLSHVADSREAVLVIARLLAHLTATPAPPGVRRLGDIARGMLERTPGTLERIPDPADRRLVADCAAAVREVVDEPGDRLLHWDLHYENVLAADRAPWIAIDPKPLAGDPGFDLLPALDNRYDPGETRWRFDALTDVLGLDRERARAWSLGRVLQNSLWNVEDGDPLETEQMEIGRLLRDL”, the entry is “failed”.
